{
  "source": "the DeepSol protein solubility set",
  "data": [
    {"experiment": "soluble on expression in E. coli; label from the status in PepcDB or PDB records", "values": [
      {"sequence": "MERLDFSSIIRKDREEHKSKKFEGTFLEYLEIVKENPEITMLAHQRMYKLITEPGVTVIRTEENPRLRRIYGNDIIKKYKFFEDEFFGIDKTIMKIVRYFHSAAMAGEEARQVLYLVGPVGAGKSSLMEALKRALEMSPPIYALKGCPMREEPLHLVPKHLRKEFEEILNVRIEGDLCPICRYRLKNEYNGEYERFPVETVDFSIRSRKGIGVVPPVDPNNQDTSVLIGSVDISKIDLYPEDDPRVLSLNGAFNVGNRGIVEFIEVFKNETEYLHTMITATQEKSIPSPGKGSMIYFDGIILAHSNEAEWNKFKSDHTNEAILDRIVKIEVPYCLELNEEIKIYEKILRKSKFDAHIAPHTIEIAAMFAILTRLAPSNKVDPMTKLKIYNGEEIIEKGMTKKVDIFELKEEAPREGMTGISTRFIMKVLDTTLSESEHNCINPISVMETLVKSIKELSISEEERERYLRFVQDSIRKEYNKILEREITKAFIHGYKEQAESLFNNYLDHAEAFVNKSKIKDRNTGEELEPDEKFLRSIEEQIGITDTAAKGFRADVTAYMFYVLRNGGKLDYTSYEPLKEAIEKKLTSSVRELSRVITQAKVRDKEQSEKYDTMVQEMKNNGYCDHCCNVILKYAANNLWKD", "soluble on expression in E. coli": "soluble"},
      {"sequence": "MGSDKIHHHHHHMVLSLSSHNVIQYLQEAGLCSSEDDASDKSELPGSSKNNSDLLVTLADNRKLLVKQEHNVKNNDVAPRELFQEWLFHQLLQQFPVLGNISAIAPLVVHFDEENSILVRNYLSEYLKLATFYHNNEIFPQEIATAIGTTLAGLHRATYNRREYRDFMATAPQGEFRYGFYNPAQGVESIGPEIFGTVPTEALKFYLLYQQSESLESAIADLAYDWNPCCLTHNDLKLNNILVHSRWKKLDNCLVRLINWEACSWGDPAFDLGTLLASYLRIWLNSLVVDPTIELQESLHLALTPLESLQPSIIALIRAYLNAFPMILEYRSDFIVRVIQFAGLALIHQIQDMITCRKSFNNTDICMLQVAKSLLTMPQQGVLTIFGISESEILNPVGKVHKLPQPVKEPQLLRLYYEKTRLRGC", "soluble on expression in E. coli": "not soluble"},
      {"sequence": "MGHHHHHHSHMTPGVVHASPPQSQRVPRQAPCEWAIRNIGQKPKEPNCHNCGTHIGLRSKTLRGTPNYLPIRQDTHPPSVIFCLAGVGVPGLPV", "soluble on expression in E. coli": "not soluble"},
      {"sequence": "MQTQKPVFSEVTVHDPSIIKANGTYYVFGSHLASAKSTDLMNWTQISSSVHDGNPLIPNVYEELKETFEWAESDTLWAPDVTQLEDGKFYMYYNACRGDSPRSALGLAVADDIEGPYKNKGIFLKSGMDGISNDGTPYDATKHPNVVDPHTFFDQNGKLWMVYGSYSGGIFILEMDKKTGFPLPGQGYGKKLIGGNHSRIEGAYILYHPETQYYYLYMSFGGLAADGGYNIRVARSKNPDGPYYDAEGHAMIDVRGKEGTLFDDRSIEPYGVKLMGNFSFNNKNGYVSPGHNSAFYDEKSGKSYLIFHTRFPGRGEEHEVRVHQLLMNKQGWPVVAPHRYAGEKLEKVKKSDVIGDYELVRHGKDISADIKESKEIRLNQNGKITGAVAGTWKNTGHNKIELKIDGKTYDGVFLRQWDAASERKVMTFSALSREGDAVWGSSLKRAEFLEHHHHHH", "soluble on expression in E. coli": "soluble"},
      {"sequence": "MGSDKIHHHHHHMQNQKPSVSLIRATSYEREALKNSLVTLLEPFGGMAAFVKPGQRVLLKPNLLTGARPTKECTTRAELVYAVAQMVIAAGGKPFLGDSPAFGSAKGVAIANGYQPLIQELNLPIIDFHGKRYETVSENFNHLLLSKEVIEADVVINLPKVKSHAQLTLTLGVKNLFGCVPGKMKAWWHMEAGKDADRFGEMLVETARAINPDLTILDGIIGHEGNGPSGGEPRALGILAAASDIFALDRAMVEILNVPPHQVPTVAASQRLRVCPELADVEFPNLHPDLLKIYDWQLPDKLMPIDFAMPRVIKSTFKHFYIRFIKEPMSAYGKQ", "soluble on expression in E. coli": "not soluble"},
      {"sequence": "MCLVKDKLKDIISVKSALSFSLKGDFDCPLEENSLFKALQILKNFLKSKNFSHSVIKSLDTLAIEVEKNIPTQAGLGGGSTDAGGLLYHLNQIFDWRLSLEELYSMGSLVGADTNFFISQYKSTNATSYGEVIENFEEEPLENRLEIYAPNHVFCSTKAVYQAYKPETCFSQAKEWLKKPSLECLKTYDRNGLNDLLKPALLTNQALKDIESELGKEWFFSGSGSAFFRLKPMQKGGELEHHHHHH", "soluble on expression in E. coli": "not soluble"},
      {"sequence": "MAHHHHHHMAASANGSTKGSETDLPIGKDGTTLHLKCKSDELADRIIFVGDPGRVDVISGYFDKDSIRASRDHREIRFATGTYKGTPVTVISTGMGVDNIEIVLNEIHALKEYDMERGQWRHRKGDADAPSAGPFFDPSTMKIIRLGTCGSPAESVPPLALAVTRHAIGMDNTSLYYSAGTRETSKDQQEIRRIVREQTGLRAIDIYTSMAHPNITKSICAACDAHNAATGSEADKQQYVIGTTATASGFYGCQGRRVGRFMKHLTVPNMVEELGSLKFNLSNGVEVVTNIEMETSAICYLSDMLGYQAGAACVVVSKRVGEKKMFLGDQLDAAMKRCIKIILEALVSA", "soluble on expression in E. coli": "soluble"},
      {"sequence": "MSLAQQKPVEKVDSDGVYLMPDQMPEFPGGMQAMMKFLTTNIKYPVEAQKKGVSGRVIVQFVIMEDGTLDQAKVVRGVDPLLDEEALRVVKLMPKWKPGMDRGEAVKVRFTAPIMFNLSRSEAQRPTFPELVVPIGQEVENRSLQGVWQSCVAQPGEHGYKILLLPVLKIVSPDQTFMNIMTAGMNGRSNAIIYCQGEYSLPSDGTYVEMVEKSVDPVFIQGVKNEISVERLHDNLIKLSFTVPGQGRKVTEYWFRAPSPDVKIMAEGHHHHHH", "soluble on expression in E. coli": "soluble"},
      {"sequence": "GPGSMPRGAIPTGQDWEEQRFNFQQRGSGGSAQPRKVTERDANRAMQSGQNVQVQRKEHQRFNQQTVSAGANAKKLDEDNETLKVKKVDPHLRVRIMKERQALNWSQQDLAQRISERVSVVAEYESGKAVQEERVIVKMEKALGVHLRGAKAGEPMGKTRPAPKAQE", "soluble on expression in E. coli": "soluble"},
      {"sequence": "MQCNVCEFGCEIDEYSRGRCRTYVCTGDTIIQDPDMGYLGAYPVSIETIPLLHYYPSGKFLQVFGTGCNFQCSGCVARLLASGKSLSSTTLTPSQVVEKALQQDCLGVVSTLNEPAANYYLFRDLAVQAKEKGLLVGCSTNCYFTEETLNKLGQLVDFMNVGIKGYSDRSYISCGVPSSAPVFRNISLLFDMGVHVETSVVYSRGNEADVIKVAEAVSDISPTIPVQVMRFIPFGDAPIELEPSVGEAESLCADLRKYVDYVYLFNSPGTELLNTYCPECGSLLAEREFYGPMGSRPVRPWITYSCDCGKTVPVKGTTAVERFNEEGFMGGYRISRAFGMVHGVLTCLGILDDSRLIDVWREISDSGTLMKVHHMIQQPYAYLDFVRLIAERANMPEKGEELISFIHTRLELVKSLAAENSGHKVYYCMGSPLFALNAGRMENNLVAFSGGLSINKQLQKEGKPGINVSPSFINENNPDTIFISGFLSRPLDEFYTLCRQYGIETDAVKQQRVYEVPPSWDFGNPRWILGLMYIADKLYPGNSGIDLEKEADEFYRQFYGMPYLEHHHHHH", "soluble on expression in E. coli": "not soluble"},
      {"sequence": "MGSDKIHHHHHHMKKATLKDIAEYFGVSISTVSRALSGKPGVSSELREKILEKAREIGYTPNLMALGLKKGNTRTVGVLIPELSANFFADIVSSIEKSLFHLGYRLILCSTDDDPVKEREHLQLLLDQKVEGILSAPVNVKENKDIYNSIINHFKIPVVFFDRLVEGVDSDFVISDNREGMEILVNYLVKHGHKKIGLIHPLRGSFTGEERLKGFLLFKDSIEIREEWIRDGRSSEQGGYESFLRIMTSQERPTAIVIGNNLMTLGVLKAAKELNIKIPEDISLVSFDDAYWNEIFDPPITCVRQDPQQIGLIAATILLDRMKNRKKPSPRMQVVLKVKFVERSSVRTIKTLKDFS", "soluble on expression in E. coli": "not soluble"},
      {"sequence": "MKAMKSLGADLDKALGRLSGGLYIITAKKGDVSSAMLASWVNQASFKPLGFSIAVAKDRAIESLMQVGDRFVLNVLEEGNYQPLMRHFLKRFAPGADRFEGVKTQPAENGAPILGDALAYMECEVVSRMDCGDHWAVYSTVYAGRVSKSEALTAVHHRKVGNHYLEHHHHHH", "soluble on expression in E. coli": "soluble"},
      {"sequence": "STSGPGGPAAAAGGRKENHQWYVCNREKLCESLQAVFVQSYLDQGTQIFLNNSIEKSGWLFIQLYHSFVSSVFSLFMSRTSINGLLGRGSMFVFSPDQFQRLLKINPDWKTHRLLDLGAGDGEVTKIMSPHFEEIYATELSETMIWQLQKKKYRVLGINEWQNTGFQYDVISCLNLLDRCDQPLTLLKDIRSVLEPTRGRVILALVLPFHPYVENVGGKWEKPSEILEIKGQNWEEQVNSLPEVFRKAGFVIEAFTRLPYLCEGDMYNDYYVLDDAVFVLKPV", "soluble on expression in E. coli": "soluble"},
      {"sequence": "MSPEGAERYDRNCDHQFQKGHVLIEMMGIKKGDFVLDVGCGTGRQALNVAGIIGPAGKLTGIDPSSYRIELARKKFEGDSSGNVRFLVRQAENLQDIPDNSINHAYFCSSFHWVDDKKTALNEIFRVLRPGGKVGMTTLDRNSPNTMKALIDPILAKFGIERRHEWHRGMKKVTAPELHDLLSGAGFTSISIEPRAVPRKYNSPEEFLQHPEEKDSSRGILRDISNETLEKLRQEITEEFRKAQTPEDIGFGNITLFAIATKAQEGLEHHHHHH", "soluble on expression in E. coli": "not soluble"},
      {"sequence": "MVPNDVFQKLLYDLFCMWHGVQRHYDPPIPDSEEQRMQKVKNLICKLLTEIDGRVNRIKQNNNHQRGQDFYEEWTMLTWNVLCITNRLQNSLSQVVVSNEDKMIYSRLNQALVELVNYSRDFLPFPSTNEMDPEYVMLRDKMNQTMMSLHGLYRQMNSAMYQTPDDVENFRIHLQTFGDDILVPCLEQYKTFCNKNCMALWQQVRLVQVERMRDQVKDQGCSIENLVSFYSNMTYVLAVLGARLQGFRYDLTVNKKFFNFDPVVHMSEAVFAALELLMSNCVLATEPSTSAILVTNNLFAMNCGALARGVVFKDFEIQVVSEETAEHIQSEMSRQRLLQHPAPIGNVPSAALLAMKPTTGTKRSNAASNSDSANNTAHKKSDVNSKESVIIYPVYNSKNRYWAATYPHLLCTTRQKGRQSIHSSYQDLSPSGTNSSASNDKNGSGKRPIFYFHIKATMFSPSGRFATAHTLSLPFTIATRRNQDCQVQRMMSSYTATIFWLYGCNTQDGLLLQWIDGGMHWDHFKHLFKQHFKLLKYKLQCPDCCSGQDGARVNGVQQIVTFKNVLCPHLRYECNSTNVRFSVWRGMLELLQIFHDTRNNVRKLWEMGFLMGFMEFEEVDNMLEKHKSALIMRLSFVTGGTICFTVKSLAHTLDPRSSRPIHLEPLDLKRLQQKCLKDYLRDIADAEKVKYILTANEEVINIESLLESLKELGVKPENPSESREISSNITHMGDIDTMQHIKFTAMRIAVVTCKVKPPSADQEENDANGLNRLQATLGTRDDDFLRDFVQLANAYGKSKQDLYEALDFINDQYQPGPIRKTSSIYDSSHHIPLAPAPIARNMGPTMISPPPAKVRPPAVDTYPRSSQFELVRSDSDHLPPSNTMMRVSCSPPKPPSQLPSPNQTTIPHMYNNGIPMIYEHHQQQRFDY", "soluble on expression in E. coli": "not soluble"},
      {"sequence": "MNSDEVQLIKKTWEIPVATPTDSGAAILTQFFNRFPSNLEKFPFRDVPLEELSGNARFRAHAGRIIRVFDESIQVLGQDGDLEKLDEIWTKIAVSHIPRTVSKESYNQLKGVILDVLTAASSLDESQAATWAKLVDHVYGIIFKAIDDDGNAK", "soluble on expression in E. coli": "soluble"},
      {"sequence": "MSEVEKTYCGFIAIVGRPNVGKSTLLNELLGQKISITSRKPQTTRHRIMGIHTEGPYQAIYVDTPGLHIEEKRAINRLMNRAASSSLGDVELVIFVVEGTHWTADDEMVVNKLRSLQCPVLLAINKVDNVTDKTKLLPHMQFLSQQMNFLDVVPISAEKGMNVDTIASIVRKHMPEAEHHFPEDYITDRSQRFMASEIIREKLMRFLGEELPYSVTVEIEQFVPNERGGYNIHGLILVEREGQKKMVIGNKGSKIKVIGTEARQDMERMFEAKVHLELWVKVKSGWADDERALRSLGYTDDLK", "soluble on expression in E. coli": "not soluble"},
      {"sequence": "MILVIDVGNTNTVFGVYDGKKLLNHWRMETSKGKTSDEYGMFIVSLLSYEKIDVGKIEAVVIASVVPPIMYSLEHAIRKYFKLEPMVVGPGIKTGINIKYENPREVGADRIINAVAALELYGGPLIIVDFGTATTFCAVSSKGEYLGGVICPGIKISAEALFQKTAKLPKIDLVKPETVIGRNTVSSMQSGIIYGYVGEVDYIVRRMKKEMKEDNIKVIATGGLARLIASESETIDEINGLLTLEGLRIIYERNK", "soluble on expression in E. coli": "soluble"}
    ]}
  ]
}
